Data as given in US20040253612A1.

Key:
[1] = biological target: c-myc monoclonal antibody 9E10; test: immunoprecipitation with 9E10 and protein A-sepharose, acetic acid elution
[2] = biological target: c-myc monoclonal antibody 9E10; test: competitive immunoprecipitation, 35S-labeled fusion, competitor unlabeled synthetic myc peptide
[3] = biological target: 33 amino acid myc-epitope peptide coded for by RNA124; test: immunoprecipitation of in vitro translated peptide, lane 4 (dilution buffer wash)
[4] = biological target: 33 amino acid myc-epitope peptide coded for by RNA124; test: immunoprecipitation of myc-epitope peptide compared with β-globin translation product

33 amino acid myc-epitope peptide coded for by RNA124, sequence (peptide, as listed by the source): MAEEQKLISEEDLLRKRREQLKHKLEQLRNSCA

Substance	percentage bound to the anti-myc antibody [1]	percent bound in the presence of unlabeled myc peptide [2]	percent of the total TCA precipitable counts isolated [3]	purification (fold) against β-globin protein [4]
wild type c-myc fusion construct (peptide)	35%	9%		
c-myc monoclonal antibody 9E10			83%	> 100 fold
